Patent US20250076311A1 (Chugai, published 2025)
Where two headings read alike, the source gives them in different places. Blank lines part the entries; values can stand above or below the binder they belong to.

Legend:
[1] = target: T1, cynomolgus monkey FcγRIIIaS extracellular domain with C-terminal His-tag (cynomolgus monkey, UniProt Q8SPW2 21-206 at identity 1.00)); assay: SPR, KD(SG1)/KD(variant)
T1 construct: also called cyno FcgRIIIaS; cynoFcγRIIIaS
T1 chain: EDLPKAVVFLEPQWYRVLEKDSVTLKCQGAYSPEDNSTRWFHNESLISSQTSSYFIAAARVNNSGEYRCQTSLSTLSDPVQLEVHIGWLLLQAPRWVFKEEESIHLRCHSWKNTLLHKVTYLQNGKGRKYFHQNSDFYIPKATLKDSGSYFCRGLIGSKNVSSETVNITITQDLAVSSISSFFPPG
Method: (§1) The kinetic analysis of interactions between these antibodies and FcγR was carried out using BIACORE® T200 or BIACORE® 4000 (GE Healthcare). HBS-EP+ (GE Healthcare) was used as the running buffer, and the measurement temperature was set to 25° C. […] After the measurement, the antibody captured on the chip was washed off by allowing reaction with 10 mM glycine-HCl, pH1.5 and 25 mM NaOH so that the chip was regenerated and used repeatedly. The sensorgrams obtained as measurement results were analyzed by the 1:1 Langmuir binding model using the BIACORE® Evaluation Software to calculate the binding rate constant ka (L/mol/s) and dissociation rate constant kd (1/s), and the dissociation constant KD (mol/L) was calculated from these values. […] Regarding such interactions, KD values were calculated using the following 1:1 binding model described in BIACORE® T100 Software Handbook BR1006-48 Edition AE.

[2] = target: T1, cynomolgus monkey FcγRIIIaS …; assay: SPR, antibody captured, FcγR analyte
[3] = target: T2, human FcγRIIaH extracellular domain with C-terminal His-tag (human, UniProt P12318 34-217); assay: SPR, antibody captured, FcγR analyte
T2 construct: also called human FcgRIIaH; FcγRIIa (type H)
T2 sequence: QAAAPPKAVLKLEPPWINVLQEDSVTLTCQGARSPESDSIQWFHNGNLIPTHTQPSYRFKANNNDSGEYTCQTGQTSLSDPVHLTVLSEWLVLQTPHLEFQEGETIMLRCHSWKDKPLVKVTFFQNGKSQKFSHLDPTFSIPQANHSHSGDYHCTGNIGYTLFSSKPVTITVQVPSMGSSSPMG

[4] = target: T1, cynomolgus monkey FcγRIIIaS …; assay: SPR, antibody captured, FcγR analyte
Method: as §1

[5] = target: T3, human FcγRIIIaV extracellular domain with C-terminal His-tag (human, UniProt P08637 17-208); assay: SPR, KD(SG1)/KD(variant)
T3 construct: also called human FcgRIIIaV
T3 sequence (P08637 17-208 F176V): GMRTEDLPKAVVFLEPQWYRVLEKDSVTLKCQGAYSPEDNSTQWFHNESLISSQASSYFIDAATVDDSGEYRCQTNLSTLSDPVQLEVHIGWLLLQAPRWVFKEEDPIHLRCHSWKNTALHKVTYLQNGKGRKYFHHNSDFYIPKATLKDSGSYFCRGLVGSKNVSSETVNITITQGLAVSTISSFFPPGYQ

[6] = target: T1, cynomolgus monkey FcγRIIIaS …; assay: SPR, KD(SG1)/KD(variant)
[7] = target: T4, human FcγRIIaR extracellular domain with C-terminal His-tag (human, UniProt P12318 34-217); assay: SPR, KD(SG1)/KD(variant)
T4 construct: also called human FcgRIIaR; FcγRIIa (type R)
T4 chain: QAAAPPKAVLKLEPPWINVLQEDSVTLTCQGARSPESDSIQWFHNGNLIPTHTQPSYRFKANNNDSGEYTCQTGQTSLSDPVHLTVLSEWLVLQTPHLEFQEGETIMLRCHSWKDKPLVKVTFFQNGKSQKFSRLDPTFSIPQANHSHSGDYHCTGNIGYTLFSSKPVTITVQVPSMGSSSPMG

[8] = target: T5, human FcγRIIb extracellular domain with C-terminal His-tag (human, UniProt P31994 43-217); assay: SPR, KD(SG1)/KD(variant)
T5 construct: also called human FcgRIIb
T5 sequence: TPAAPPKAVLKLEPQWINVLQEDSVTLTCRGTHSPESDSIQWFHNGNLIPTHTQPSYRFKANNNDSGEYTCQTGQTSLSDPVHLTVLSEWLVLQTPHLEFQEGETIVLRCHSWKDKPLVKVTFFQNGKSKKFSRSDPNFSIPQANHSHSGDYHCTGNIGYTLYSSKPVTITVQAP

[9] = target: T6, cynomolgus monkey FcγRIIa2 extracellular domain with C-terminal His-tag (cynomolgus monkey); assay: SPR, KD(SG1)/KD(variant)
T6 construct: also called cyno FcgRIIa2; cynoFcγRIIa2
T6 chain: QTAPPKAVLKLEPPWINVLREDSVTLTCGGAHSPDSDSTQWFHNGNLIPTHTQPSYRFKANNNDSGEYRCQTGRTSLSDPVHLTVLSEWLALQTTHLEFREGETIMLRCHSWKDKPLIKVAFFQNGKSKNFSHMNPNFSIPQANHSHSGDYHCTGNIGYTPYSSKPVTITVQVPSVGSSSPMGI

[10] = target: T7, human FcγRIIb extracellular domain, C-terminal His-tag (human, UniProt P31994 43-217); assay: SPR (BIACORE), antibody captured, FcgR analyte, 25 C
T7 construct: also called FcgRIIb
T7 sequence: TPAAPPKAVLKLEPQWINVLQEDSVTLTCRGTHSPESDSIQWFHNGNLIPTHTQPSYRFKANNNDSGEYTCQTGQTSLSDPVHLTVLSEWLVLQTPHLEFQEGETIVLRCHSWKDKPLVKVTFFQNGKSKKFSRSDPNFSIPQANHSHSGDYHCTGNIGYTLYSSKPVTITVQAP

[11] = target: T8, cynomolgus monkey FcγRIIIaS extracellular domain, His-tagged (cynomolgus monkey, UniProt Q8SPW2 21-206 at identity 1.00)); assay: SPR Biacore, antibody captured, FcgR analyte
T8 construct: also called cyno FcγRIIIaS; cynoFcγRIIIaS; not shown: C-terminal His-tag
T8 chain: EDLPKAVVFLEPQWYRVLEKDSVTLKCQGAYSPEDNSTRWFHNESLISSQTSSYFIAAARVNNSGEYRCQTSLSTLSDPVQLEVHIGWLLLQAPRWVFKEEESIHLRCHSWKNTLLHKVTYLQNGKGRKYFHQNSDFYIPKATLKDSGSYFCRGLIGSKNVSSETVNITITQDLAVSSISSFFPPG

[12] = target: T9, human FcγRIIb extracellular domain, His-tagged (human, UniProt P31994 43-217); assay: SPR Biacore, KD(SG1)/KD(variant)
T9 construct: also called FcgRIIb (human); not shown: C-terminal His-tag
T9 sequence: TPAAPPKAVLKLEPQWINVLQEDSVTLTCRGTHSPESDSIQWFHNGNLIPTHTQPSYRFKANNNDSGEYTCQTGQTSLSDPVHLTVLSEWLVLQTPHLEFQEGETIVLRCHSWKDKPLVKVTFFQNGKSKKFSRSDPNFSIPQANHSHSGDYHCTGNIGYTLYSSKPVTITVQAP

[13] = target: T10, human FcγRIIaR extracellular domain, His-tagged (human, UniProt P12318 34-217); assay: SPR Biacore, antibody captured, FcgR analyte
T10 construct: also called human FcγRIIa (type R); FcgRIIaR; not shown: C-terminal His-tag
T10 chain: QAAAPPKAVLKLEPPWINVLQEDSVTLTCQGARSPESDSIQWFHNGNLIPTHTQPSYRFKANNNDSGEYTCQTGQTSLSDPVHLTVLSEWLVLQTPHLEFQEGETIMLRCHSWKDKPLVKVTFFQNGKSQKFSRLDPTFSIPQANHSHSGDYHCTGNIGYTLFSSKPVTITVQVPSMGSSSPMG

[14] = target: T11, cynomolgus monkey FcγRIIa2 extracellular domain, His-tagged (cynomolgus monkey); assay: SPR Biacore, antibody captured, FcgR analyte
T11 construct: also called cyno FcγRIIa2; cynoFcgRIIa2; not shown: C-terminal His-tag
T11 chain: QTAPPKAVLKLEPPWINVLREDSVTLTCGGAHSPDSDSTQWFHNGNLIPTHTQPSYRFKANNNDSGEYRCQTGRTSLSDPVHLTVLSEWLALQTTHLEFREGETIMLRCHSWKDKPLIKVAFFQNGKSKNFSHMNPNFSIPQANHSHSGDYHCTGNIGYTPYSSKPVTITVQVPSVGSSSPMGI

[15] = target: T9, human FcγRIIb extracellular domain, …; assay: SPR Biacore, antibody captured, FcgR analyte

KD fold (SG1 = 1) [1]: 0.07 fold
Kd [2]: 4.1 µM
Kd [3]: 0.012 µM
Kd [4]: 5.2 µM
KD fold (SG1 = 1) [5]: 0.03 fold
KD fold (SG1 = 1) [6]: 0.07 fold
KD fold (SG1 = 1) [7]: 0.8 fold
KD fold (SG1 = 1) [8]: 4.7 fold
KD fold (SG1 = 1) [9]: 3.8 fold
B1: MS1032LO06-MY351 (antibody, human IgG1, kappa)
heavy: QVTLKESGPVLVKPTETLTLTCTVSGIDLSHDDISWVRQAPGKGLEWVGIISYAGSTYYASWAKGRLTISKDTSKNQVVLTMTNMDPVDTATYYCARGVPAYSHGGDLWGQGTLVTVSSASTKGPSVFPLAPSSKSTSGGTAALGCLVKDYFPEPVTVSWNSGALTSGVHTFPAVLQSSGLYSLSSVVTVPSSSLGTQTYICNVNHKPSNTKVDKKVEPKSCDKTHTCPPCPAPELLNGPSVFLFPPKPKDTLMISRTPEVTCVVVDVSDEDPEVKFNWYVDGVEVHNAKTKPREEQYNSTYRVVSVLTVLHRDWLNGKEYKCKVSNKALPKPIEKTISKAKGQPREPQVYTLPPSREEMTKNQVSLTCLVKGFYPSDIAVEWESNGQPENNYKTTPPVLDSDGSFFLYSKLTVKKSRWQQGNVFSCSVMHEALHNHYTQKSLSLSP
light: DIVMTQSPATLSLSPGERATLSCTSSQSVYHANWLSWFQQKPGQPPKLLIYWASTLAYGVPSRFSGSGSGTDFTLTISSLQPEDAATYYCAGGYGGGRYAFGQGTKVEIKRTVAAPSVFIFPPSDEQLKSGTASVVCLLNNFYPREAKVQWKVDNALQSGNSQESVTEQDSKDSTYSLSSTLTLSKADYEKHKVYACEVTHQGLSSPVTKSFNRGEC
notes: also called M103205H795-MY351; copies: 2 + 2

Kd [10]: 5.8 µM
B2: MS103240H795-SG1/M103202L1045-SK1 (antibody, human IgG1, kappa)
heavy: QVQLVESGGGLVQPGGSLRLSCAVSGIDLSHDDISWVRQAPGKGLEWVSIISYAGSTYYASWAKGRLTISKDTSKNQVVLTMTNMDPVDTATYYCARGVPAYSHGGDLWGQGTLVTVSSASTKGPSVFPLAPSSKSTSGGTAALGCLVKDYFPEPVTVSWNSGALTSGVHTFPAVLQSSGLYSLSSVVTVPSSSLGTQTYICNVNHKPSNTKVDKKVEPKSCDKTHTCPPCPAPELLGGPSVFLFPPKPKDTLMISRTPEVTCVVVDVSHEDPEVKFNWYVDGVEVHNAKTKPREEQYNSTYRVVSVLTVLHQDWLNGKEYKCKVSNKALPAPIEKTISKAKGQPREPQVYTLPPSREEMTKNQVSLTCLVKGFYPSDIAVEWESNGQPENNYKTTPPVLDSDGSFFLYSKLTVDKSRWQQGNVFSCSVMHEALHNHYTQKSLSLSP
light: DIVMTQSPATLSLSPGERATLSCTTSQSVYHENWLSWFQQKPGQPPKLLIYWASTLAYGVPSRFSGSGSGTDFTLTISSLQPEDAATYYCAGGYGGGRYAFGQGTKVEIKRTVAAPSVFIFPPSDEQLKSGTASVVCLLNNFYPREAKVQWKVDNALQSGNSQESVTEQDSKDSTYSLSSTLTLSKADYEKHKVYACEVTHQGLSSPVTKSFNRGEC
notes: Parent of the Fc variants; anti-latent myostatin variable region, human IgG1-type constant region SG1; also called MS1032LO19-SG1; copies: 2 + 2

The remaining lines, values behind:

B3: M103205H795-MY001/M103202L889-SK1 (antibody, human IgG1, kappa, name in EU numbering)
heavy: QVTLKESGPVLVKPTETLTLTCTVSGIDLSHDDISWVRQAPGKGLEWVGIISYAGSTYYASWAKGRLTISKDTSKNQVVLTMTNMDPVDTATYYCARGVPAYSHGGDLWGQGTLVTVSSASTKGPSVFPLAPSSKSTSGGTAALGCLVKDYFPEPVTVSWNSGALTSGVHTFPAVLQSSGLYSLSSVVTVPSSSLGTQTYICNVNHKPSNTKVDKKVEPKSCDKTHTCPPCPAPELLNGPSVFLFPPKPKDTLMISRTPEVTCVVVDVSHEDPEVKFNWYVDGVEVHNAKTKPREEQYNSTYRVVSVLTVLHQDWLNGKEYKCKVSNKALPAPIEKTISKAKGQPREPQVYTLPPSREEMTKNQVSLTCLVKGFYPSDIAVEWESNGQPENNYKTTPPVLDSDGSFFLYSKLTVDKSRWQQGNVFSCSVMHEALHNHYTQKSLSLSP
light: DIVMTQSPATLSLSPGERATLSCTSSQSVYHANWLSWFQQKPGQPPKLLIYWASTLAYGVPSRFSGSGSGTDFTLTISSLQPEDAATYYCAGGYGGGRYAFGQGTKVEIKRTVAAPSVFIFPPSDEQLKSGTASVVCLLNNFYPREAKVQWKVDNALQSGNSQESVTEQDSKDSTYSLSSTLTLSKADYEKHKVYACEVTHQGLSSPVTKSFNRGEC
notes: Substitution introduced into M103205H795-SG1; EU numbering
Kd [11]: 12 µM
KD fold (SG1 = 1) [12]: 6.6 fold

B4: M103205H795-MY074/M103202L889-SK1 (antibody, human IgG1, kappa, name in EU numbering)
heavy: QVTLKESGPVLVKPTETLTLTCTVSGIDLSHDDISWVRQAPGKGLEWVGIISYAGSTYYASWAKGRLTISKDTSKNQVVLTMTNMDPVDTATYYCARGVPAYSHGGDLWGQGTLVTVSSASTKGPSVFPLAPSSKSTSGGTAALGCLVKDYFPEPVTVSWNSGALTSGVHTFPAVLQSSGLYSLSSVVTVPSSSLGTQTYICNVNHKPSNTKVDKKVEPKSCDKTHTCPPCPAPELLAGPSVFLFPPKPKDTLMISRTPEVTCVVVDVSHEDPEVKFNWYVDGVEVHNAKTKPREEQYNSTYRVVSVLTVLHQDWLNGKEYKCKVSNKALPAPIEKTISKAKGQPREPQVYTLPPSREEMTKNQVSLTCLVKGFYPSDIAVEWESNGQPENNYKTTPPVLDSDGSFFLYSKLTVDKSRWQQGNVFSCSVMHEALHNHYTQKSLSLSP
light: DIVMTQSPATLSLSPGERATLSCTSSQSVYHANWLSWFQQKPGQPPKLLIYWASTLAYGVPSRFSGSGSGTDFTLTISSLQPEDAATYYCAGGYGGGRYAFGQGTKVEIKRTVAAPSVFIFPPSDEQLKSGTASVVCLLNNFYPREAKVQWKVDNALQSGNSQESVTEQDSKDSTYSLSSTLTLSKADYEKHKVYACEVTHQGLSSPVTKSFNRGEC
notes: as for B3
Kd [13]: 0.21 µM
Kd [14]: 2.3 µM
Kd [15]: 3.6 µM
